Values joined by “and” are separate entries in the source; they are usually repeats but may differ in a detail not shown here. Identical values can stand only once. Values belong to the substance of their own block, whether it stands above or below them.
Key:
Assay in all cases: high-speed atomic force microscopy
[1] = molecular target: EML4-ALK variant-3 (v3b, E6:A20) (human) (UniProt Q9UM73)
[2] = molecular target: EML4-ALK v3 with the subdomain region (191-217 aa residues) deleted (ddv3) (human) (UniProt Q9UM73)
[3] = molecular target: EML4-ALK variant-5 (v5a, E2:A20) (human) (UniProt Q9UM73)

ratio of dimers [1]: 38.5% | ratio of trimers [1]: 9.3% | stoichiometry N [1]: 2 and 3
Substance: EML4-ALK variant-3 (v3b, E6:A20) (from UniProt Q9UM73 1058-1620) (natural protein)

ratio of dimers [2]: 28.1% | ratio of trimers [2]: 7.3% | stoichiometry N [2]: 2 and 3
Substance: EML4-ALK v3 with the subdomain region (191-217 aa residues) deleted (ddv3) (from UniProt Q9UM73 1058-1620) (natural protein)

ratio of dimers [3]: 29.8% | ratio of trimers [3]: 10.2% | stoichiometry N [3]: 2 and 3
Substance: EML4-ALK variant-5 (v5a, E2:A20) (from UniProt Q9UM73 1058-1620) (natural protein)
